{"source": "patent EP4725967A1", "about": "(Nanjing Probio Biotech Co., Ltd., dated 2026)", "key": {"human CCR8 [1]": {"molecular_target": "T1, human CCR8 (human, UniProt P51685 1-355)", "T1 construct": "whole, on cells; also called hu-CCR8; CC chemokine receptor 8", "T1 sequence (P51685 whole entry)": "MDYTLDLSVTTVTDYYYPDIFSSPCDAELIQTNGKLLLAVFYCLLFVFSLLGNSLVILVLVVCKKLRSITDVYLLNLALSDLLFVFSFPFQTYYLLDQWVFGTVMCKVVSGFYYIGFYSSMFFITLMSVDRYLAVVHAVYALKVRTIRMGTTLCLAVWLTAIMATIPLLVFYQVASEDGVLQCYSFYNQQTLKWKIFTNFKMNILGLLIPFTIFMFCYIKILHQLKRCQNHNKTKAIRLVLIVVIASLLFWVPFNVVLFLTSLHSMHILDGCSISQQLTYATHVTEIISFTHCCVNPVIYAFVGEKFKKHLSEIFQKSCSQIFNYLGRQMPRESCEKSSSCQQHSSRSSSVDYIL", "experiment": "flow cytometry on HEK293/hu-CCR8 cells (FIG. 5A)"}, "human CCR8 [2]": {"molecular_target": "T1, human CCR8", "experiment": "flow cytometry, hybridoma supernatant on HEK293/hu-CCR8 cells"}, "human CCR8 [3]": {"molecular_target": "T1, human CCR8", "experiment": "flow cytometry on HEK293/hu-CCR8 cells, chimeric antibody (FIG. 1B)"}, "human CCR8 [4]": {"molecular_target": "T1, human CCR8", "experiment": "flow cytometry on HEK293/hu-CCR8 cells, chimeric antibody (FIG. 1A)"}}, "data": [{"binder": "humanized antibody 154G7C3-VH1.1-VL2 (antibody, human IgG1, kappa, V domains shown, Human IgG1/kappa) VH: QVQLVQSGAEVKKPGASVKVSCKVSGYTFTDFEMHWVRQAPGKGLEWIGAFDPETGGTAYNQKFKGRVTMTEDTSTDTAYMELSSLRSEDTAVYYCTGRLRRHFDSWGQGTLVTVSS VL: DIVMTQSPLSLPVTPGEPASISCRSSQSLVHSYGNTYLHWYLQKPGQSPQLLIYKVSNRFSGVPDRFSGSGSGTDFTLKISRVEAEDVGVYYCSQSTHVPFTFGQGTKLEIKR", "values": [{"measurement": "binding result", "setting": "human CCR8 [1]", "result": "binds"}]}, {"binder": "antibody produced by monoclonal clone 117G9F9 (murine, hybridoma) (antibody, V domains shown, Mouse antibody in hybridoma supernatant; Taking 31/32 as murine rests only on the order of listing) VH: EVQLVESGGGLVQPKGSLKLSCAASGFSFNTYAMNWVRQAPGKGLEWVARIRSKSNYYATYYADSVKDRFTISRDDSESMLYLQMNNLKTEDTAMYYCVRGGNSYGSSYFDYWGQGTTLTVSS VL: DIVMTQAAPSVPVTPGESVSISCRSSKSLLHRNGNTYLYWFLQRPGQSPQLLIYRMSNLASGVPDRFSGSGSGTAFTLRISRLEAEDVGVYYCMQHLEYPFTFGAGTKLELK", "values": [{"measurement": "binding result", "setting": "human CCR8 [2]", "result": "binds"}]}, {"binder": "humanized antibody 117G9F9-VH2.1-VL1 (antibody, human IgG1, kappa, V domains shown, Human IgG1/kappa) VH: EVQLVESGGGLVKPGGSLRLSCAASGFSFNTYAMNWVRQAPGKGLEWVGRIRSKSNYYATYYADSVKDRFTISRDDSKNTLYLQMNSLKTEDTAVYYCVRGGNSYGSSYFDYWGQGTLVTVSS VL: DIVMTQSPLSLPVTPGEPASISCRSSKSLLHRNGNTYLYWYLQKPGQSPQLLIYRMSNLASGVPDRFSGSGSGTDFTLKISRVEAEDVGVYYCMQHLEYPFTFGQGTKLEIKR", "values": [{"measurement": "binding result", "setting": "human CCR8 [1]", "result": "binds"}]}, {"binder": "chimeric antibody 224E9A3 (antibody, human IgG1, kappa, V domains shown, Murine variable regions on human IgG1/kappa) VH: EVQLVESGGGLVQPKGSLKLSCAASGFTFNTYAMYWVCQAPGKGLEWVARIRSKSNNYATYYADSVKDRFTISRDDSQSMLYLQMNNLKTEDTAMYYCVRGGRGNYLYAMDYWGQGTSVTVSS VL: DIVMTQAAPSVPVTPGESVSISCRSSKSLLHSNGNTYLYWFLQRPGQSPQLLIYRMSNLASGVPDRFSGSGSGSAFTLRISRVEAEDVGVYYCMQHLEYPFTFGSGTKLEIKR", "values": [{"measurement": "binding result", "setting": "human CCR8 [3]", "result": "binds"}]}, {"binder": "chimeric antibody 117G9F9 (antibody, human IgG1, kappa, V domains shown, Murine variable regions on human IgG1/kappa) VH: EVQLVESGGGLVQPKGSLKLSCAASGFSFNTYAMNWVRQAPGKGLEWVARIRSKSNYYATYYADSVKDRFTISRDDSESMLYLQMNNLKTEDTAMYYCVRGGNSYGSSYFDYWGQGTTLTVSS VL: DIVMTQAAPSVPVTPGESVSISCRSSKSLLHRNGNTYLYWFLQRPGQSPQLLIYRMSNLASGVPDRFSGSGSGTAFTLRISRLEAEDVGVYYCMQHLEYPFTFGAGTKLELKR", "values": [{"measurement": "binding result", "setting": "human CCR8 [4]", "result": "binds"}]}, {"binder": "antibody produced by monoclonal clone 224E9A3 (murine, hybridoma) (antibody, V domains shown, Mouse antibody in hybridoma supernatant) VH: EVQLVESGGGLVQPKGSLKLSCAASGFTFNTYAMYWVCQAPGKGLEWVARIRSKSNNYATYYADSVKDRFTISRDDSQSMLYLQMNNLKTEDTAMYYCVRGGRGNYLYAMDYWGQGTSVTVSS VL: DIVMTQAAPSVPVTPGESVSISCRSSKSLLHSNGNTYLYWFLQRPGQSPQLLIYRMSNLASGVPDRFSGSGSGSAFTLRISRVEAEDVGVYYCMQHLEYPFTFGSGTKLEIK", "values": [{"measurement": "binding result", "setting": "human CCR8 [2]", "result": "binds"}]}, {"binder": "antibody produced by monoclonal clone 154G7C3 (murine, hybridoma) (antibody, V domains shown, Mouse antibody in hybridoma supernatant; Taking 27/28 as murine rests only on the order of listing) VH: QVQLQQSGAELVRPGASVTLSCKTSGYTFTDFEMHWVKQTPVHGLEWIGAFDPETGGTAYNQKFKGKAILTADKSSSTAYMELRSLTSEDSAVYYCTGRLRRHFDSWGQGTTLTVSS VL: DVVMTQTPLSLPVSLGDQASISCRSSQSLVHSYGNTYLHWYLQKPGQSPKLLIYKVSNRFSGVPDRFSGSGSGTDFTLKISRVEAEDLGVYFCSQSTHVPFTFGSGTKLEIK", "values": [{"measurement": "binding result", "setting": "human CCR8 [2]", "result": "binds"}]}, {"binder": "chimeric antibody 154G7C3 (antibody, human IgG1, kappa, V domains shown, Murine variable regions on human IgG1/kappa) VH: QVQLQQSGAELVRPGASVTLSCKTSGYTFTDFEMHWVKQTPVHGLEWIGAFDPETGGTAYNQKFKGKAILTADKSSSTAYMELRSLTSEDSAVYYCTGRLRRHFDSWGQGTTLTVSS VL: DVVMTQTPLSLPVSLGDQASISCRSSQSLVHSYGNTYLHWYLQKPGQSPKLLIYKVSNRFSGVPDRFSGSGSGTDFTLKISRVEAEDLGVYFCSQSTHVPFTFGSGTKLEIKR", "values": [{"measurement": "binding result", "setting": "human CCR8 [4]", "result": "binds"}]}]}
